Molecular target: TOLLIP, recombinant from bacteria, biotinylated (human, UniProt Q9H0E2 1-274, biotin (biotinylated TOLLIP; site not told))
Assay: BLI

B1: GST-BLK (B lymphoid tyrosine kinase), recombinant from bacteria (enzyme)
chain: not shown
modifications: autophosphorylated as purified (Fig. S5 C); sites not told for this sample
B1 gave a Kd of roughly 8.39 nM.

Source: publication PMC10711807 (The Journal of Cell Biology, 2023)
